According to paper PMC4010427, “Structural and Functional Similarity of Amphibian Constitutive Androstane Receptor with Mammalian Pregnane X Receptor” (PLoS ONE, 2014):

Key:
xlCARα = biological target: T1, xlCARα (Xenopus laevis, UniProt A0A1L8FCY0); assay: CARLA: ligand-dependent pull-down of […]-labelled receptor by GST-SRC-1 RID; details: pH 8.0, 4 °C overnight; agonist; indirect coactivator-dependent binding assay
T1 construct: gene nr1i3.L; full-length; 35S-Met labelled by in vitro transcription/translation (CARLA, with human GST-SRC-1 RID 583-783 as read-out) or expressed in HepG2 cells; LBD residues 145-423
T1 sequence (A0A1L8FCY0 19-441): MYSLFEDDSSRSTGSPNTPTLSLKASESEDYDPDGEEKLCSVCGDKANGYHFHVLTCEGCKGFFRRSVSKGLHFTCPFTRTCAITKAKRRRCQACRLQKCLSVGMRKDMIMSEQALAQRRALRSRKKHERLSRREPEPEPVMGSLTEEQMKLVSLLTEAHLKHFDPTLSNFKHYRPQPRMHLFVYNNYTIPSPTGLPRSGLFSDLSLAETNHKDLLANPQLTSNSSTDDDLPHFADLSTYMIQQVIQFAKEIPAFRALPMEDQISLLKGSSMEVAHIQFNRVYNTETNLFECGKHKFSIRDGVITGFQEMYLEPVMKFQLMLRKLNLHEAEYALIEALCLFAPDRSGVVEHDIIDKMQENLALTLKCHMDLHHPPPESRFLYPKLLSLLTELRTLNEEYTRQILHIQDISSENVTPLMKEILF

[1] = biological target: GAL4-DBD/SRC1-RID fusion protein (human coactivator SRC-1, receptor interaction domain, amino acids 583–783) (UniProt Q15788); assay: mammalian two-hybrid assay; details: COS7 cells; pM-SRC-1 (black bars); no ligand; n = 9; empty pVP16-AD with pM-SRC-1 est. 0.57 (red line); parent: est. 0.49; read off a plot
[2] = biological target: GAL4-DBD/PGC-1α-RID fusion protein (human PGC-1α, receptor interaction domain, amino acids 88-213) (UniProt Q9UBK2); assay: mammalian two-hybrid assay; details: COS7 cells; pM-PGC1a (black bars); no ligand; n = 9; empty pVP16-AD with pM-PGC1a est. 3.3 (red line); parent: est. 3.6; read off a plot
[3] = biological target: GAL4-DBD/RXRα-LBD fusion protein (human retinoid X receptor α, amino acids 226–462) (UniProt P19793); assay: mammalian two-hybrid assay; details: COS7 cells; GAL4-dependent pGL3G5 reporter; no ligand; n = 6; parent: est. 40; read off a plot
[4] = biological target: GST-tagged SRC-1 RID protein (recombinant human SRC-1, amino acids 583–783) (UniProt Q15788); assay: CARLA; details: n = 3, read off a plot; for response: absence of ligand (DMSO only), parent: est. 0.10; for other: fold induction (fold over DMSO only (=1)): 100 µM pregnanedione (log M = -4.0), parent: est. 74
Sequence of GST-tagged SRC-1 RID protein (recombinant human SRC-1, amino acids 583–783) (Q15788 583-783): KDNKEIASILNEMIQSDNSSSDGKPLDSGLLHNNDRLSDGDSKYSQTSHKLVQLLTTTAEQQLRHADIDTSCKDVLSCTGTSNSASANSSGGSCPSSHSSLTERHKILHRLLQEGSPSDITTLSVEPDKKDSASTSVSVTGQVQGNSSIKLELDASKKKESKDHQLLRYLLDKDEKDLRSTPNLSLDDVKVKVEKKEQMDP

Sequence of GAL4-DBD/SRC1-RID fusion protein (human coactivator SRC-1, receptor interaction domain, amino acids 583–783) (Q15788 583-783): as above
Sequence of GAL4-DBD/RXRα-LBD fusion protein (human retinoid X receptor α, amino acids 226–462) (P19793 226-462): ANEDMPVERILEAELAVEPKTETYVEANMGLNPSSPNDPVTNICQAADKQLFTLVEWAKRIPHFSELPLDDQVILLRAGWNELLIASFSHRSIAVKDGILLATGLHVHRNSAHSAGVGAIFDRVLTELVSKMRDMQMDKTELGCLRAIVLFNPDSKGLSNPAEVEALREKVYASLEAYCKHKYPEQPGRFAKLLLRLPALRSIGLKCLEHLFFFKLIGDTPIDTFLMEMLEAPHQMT
Sequence of GAL4-DBD/PGC-1α-RID fusion protein (human PGC-1α, receptor interaction domain, amino acids 88-213) (Q9UBK2 88-213): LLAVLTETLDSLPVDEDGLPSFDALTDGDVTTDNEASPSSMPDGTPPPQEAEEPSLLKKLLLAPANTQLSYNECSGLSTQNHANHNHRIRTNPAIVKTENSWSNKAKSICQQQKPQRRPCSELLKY

response [1]	response [2]	response (fold over empty vector pVP16-AD (=1)) [3]	response [4]	other: fold induction (fold over DMSO only (=1)) [4]	Compound	fold induction of SRC-1 interaction (xlCARα)
					CC(=O)[C@H]1CC[C@H]2[C@@H]3CC[C@@H]4CC(=O)CC[C@]4(C)[C@H]3CC[C@]12C [5β-pregnane-3,20-dione]	suggests that xlCARα binds pregnanedione with higher affinity than hsCAR
0.45 rel pM/pVP16	2.8 rel pM/pVP16	47			VP16-AD/xlCARα-LBD fusion protein, wild type (Xenopus laevis constitutive androstane receptor α, amino acids 145–423) His295Leu	
0.71 rel pM/pVP16	5.5 rel pM/pVP16	55			VP16-AD/xlCARα-LBD fusion protein, wild type (Xenopus laevis constitutive androstane receptor α, amino acids 145–423) Met272Val	
0.77 rel pM/pVP16	5.5 rel pM/pVP16	59			VP16-AD/xlCARα-LBD fusion protein, wild type (Xenopus laevis constitutive androstane receptor α, amino acids 145–423) Met272Val; Met316Phe	
0.8 rel pM/pVP16	5 rel pM/pVP16	56			VP16-AD/xlCARα-LBD fusion protein, wild type (Xenopus laevis constitutive androstane receptor α, amino acids 145–423) Met316Phe	
0.99 rel pM/pVP16	5.7 rel pM/pVP16	110			VP16-AD/xlCARα-LBD fusion protein, wild type (Xenopus laevis constitutive androstane receptor α, amino acids 145–423) Thr305Val	
0.61 rel pM/pVP16	4.2 rel pM/pVP16	98			VP16-AD/xlCARα-LBD fusion protein, wild type (Xenopus laevis constitutive androstane receptor α, amino acids 145–423) Tyr311Phe	
0.38 rel pM/pVP16	2.8 rel pM/pVP16	41			VP16-AD/xlCARα-LBD fusion protein, wild type (Xenopus laevis constitutive androstane receptor α, amino acids 145–423) Val315Ile	
			0.11 % of input		full-length Xenopus laevis CARα, wild type, 35S-labelled His295Leu	
			0.05 % of input	28	full-length Xenopus laevis CARα, wild type, 35S-labelled Leu237Ile	
			0.17 % of input	16	full-length Xenopus laevis CARα, wild type, 35S-labelled Met272Val	
			0.05 % of input	2	full-length Xenopus laevis CARα, wild type, 35S-labelled Phe279Leu	
			0.11 % of input		full-length Xenopus laevis CARα, wild type, 35S-labelled Phe297Tyr	
			0.11 % of input		full-length Xenopus laevis CARα, wild type, 35S-labelled Ser238Asn	
			0.06 % of input		full-length Xenopus laevis CARα, wild type, 35S-labelled Tyr311Phe	
			0.09 % of input	10	full-length Xenopus laevis CARα, wild type, 35S-labelled Val315Ile	
